From paper PMC4204210 (Molecular cell, 2014)

Molecular target: the molecule itself
Assay: SEC-MALS

Row | Protein | stoichiometry N
1 | Get3 purified under reducing conditions (Get3red) (natural protein, yeast) MDLTVEPNLHSLITSTTHKWIFVGGKGGVGKTTSSCSIAIQMALSQPNKQFLLISTDPAHNLSDAFGEKFGKDARKVTGMNNLSCMEIDPSAALKDMNDMAVSRANNNGSDGQGDDLGSLLQGGALADLTGSIPGIDEALSFMEVMKHIKRQEQGEGETFDTVIFDTAPTGHTLRFLQLPNTLSKLLEKFGEITNKLGPMLNSFMGAGNVDISGKLNELKANVETIRQQFTDPDLTTFVCVCISEFLSLYETERLIQELISYDMDVNSIIVNQLLFAENDQEHNCKRCQARWKMQKKYLDQIDELYEDFHVVKMPLCAGEIRGLNNLTKFSQFLNKEYNPITDGKVIYELEDKE | 2
2 | Get3 oxidised with 2 mM H2O2 / 50 µM Cu2+ (Get3ox) (natural protein, yeast, intramolecular disulfide bonds connecting the next-neighbor conserved cysteines (C242/C244 and C285/C288)) MDLTVEPNLHSLITSTTHKWIFVGGKGGVGKTTSSCSIAIQMALSQPNKQFLLISTDPAHNLSDAFGEKFGKDARKVTGMNNLSCMEIDPSAALKDMNDMAVSRANNNGSDGQGDDLGSLLQGGALADLTGSIPGIDEALSFMEVMKHIKRQEQGEGETFDTVIFDTAPTGHTLRFLQLPNTLSKLLEKFGEITNKLGPMLNSFMGAGNVDISGKLNELKANVETIRQQFTDPDLTTFVCVCISEFLSLYETERLIQELISYDMDVNSIIVNQLLFAENDQEHNCKRCQARWKMQKKYLDQIDELYEDFHVVKMPLCAGEIRGLNNLTKFSQFLNKEYNPITDGKVIYELEDKE | 4
